The target of the assay is T1, full-length protein LRP8 expressed in N2A cells transfected with a cDNA coding for LRP8 (Origene, Cat. No. … (human, UniProt Q14114 33-963)).
T1 construct: Tested as a lysate of transfected N2A cells in SDS-PAGE and Western blot, not on intact cells; also called LRP8-FL; APOER2
T1 sequence: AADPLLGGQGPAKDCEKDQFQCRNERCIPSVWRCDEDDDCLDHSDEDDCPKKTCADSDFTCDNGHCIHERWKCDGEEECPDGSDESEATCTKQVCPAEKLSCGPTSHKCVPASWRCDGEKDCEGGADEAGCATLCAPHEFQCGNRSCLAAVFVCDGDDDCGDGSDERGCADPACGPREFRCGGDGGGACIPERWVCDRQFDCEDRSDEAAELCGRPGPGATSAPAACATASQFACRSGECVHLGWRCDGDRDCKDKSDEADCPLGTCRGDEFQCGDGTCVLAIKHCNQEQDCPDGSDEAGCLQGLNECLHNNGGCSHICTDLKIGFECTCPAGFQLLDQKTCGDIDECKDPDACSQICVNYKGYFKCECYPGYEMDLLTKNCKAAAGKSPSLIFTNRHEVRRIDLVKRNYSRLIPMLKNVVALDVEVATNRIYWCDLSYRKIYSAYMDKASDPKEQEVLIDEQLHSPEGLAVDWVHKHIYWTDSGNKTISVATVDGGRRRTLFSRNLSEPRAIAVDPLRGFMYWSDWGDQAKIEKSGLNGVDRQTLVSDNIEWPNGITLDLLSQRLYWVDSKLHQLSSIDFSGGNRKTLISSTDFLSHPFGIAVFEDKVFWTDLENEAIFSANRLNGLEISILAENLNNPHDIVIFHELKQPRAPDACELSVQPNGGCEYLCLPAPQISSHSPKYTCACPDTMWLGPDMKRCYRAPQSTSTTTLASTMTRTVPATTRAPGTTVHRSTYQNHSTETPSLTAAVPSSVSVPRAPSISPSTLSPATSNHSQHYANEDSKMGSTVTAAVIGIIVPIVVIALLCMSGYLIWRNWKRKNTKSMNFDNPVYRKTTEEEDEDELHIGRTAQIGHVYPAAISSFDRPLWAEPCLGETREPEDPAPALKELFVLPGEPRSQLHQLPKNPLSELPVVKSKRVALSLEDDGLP
The assay can be described thus: Western blot, lysate of LRP8-transfected N2A cells, antibody at 1 µg/ml. An excerpt: The two lines of hybridomas described above develop antibodies that recognize both the entire protein LRP8 and its different C-terminal fragments. […] I.D. 5 and 9 with a cysteine at the C-terminus are able to produce antibodies that recognize both the protein LRP8 as such, and the fragments of 18-25 kDa, which are substrates of γ-secretase and different shorter fragments of 8-16 kDa, collectively defined as LICDs-derived intracellular domain LRP8, similar to the AICDs fragments derived from the cleavage of AβPP by γ-secretase or by other proteases such as those previously specified. The polyclonal antibodies (rabbit) GS1 and GS2 were made using SEQ I.D. 5 and SEQ I.D. 9, respectively. […] In lane 8 there is a negative control whereas in lane 9 the hybridization was performed using a commercial antibody vs LRP8 (Sigma Aldrich Cat No. SAB1306331) as a positive control. All the antibodies were used at the final concentration of 1 µg/ml. It is therefore clear that both the polyclonal antibodies and the antibodies of clones of hybridomas according to the present invention are able to identify not only the full-length protein LRP8 and the fragments from 18-25 kDa, but also advantageously the fragments 8-16 kDa, as indicated by the boxes in FIG. 3. […]
(A western blot detects proteins with antibodies after separation by electrophoresis.)

B1: monoclonal antibody of hybridoma 25F7F1 (antibody, V domains shown)
VH: EVQLQQSGPVLVKPGASVKMSCKASGYKFTDHFMNWVKKNHGKSLEWIGVINPYNGGTRLNPKFKGKATLTVDKSSSTVYMELNSLTFEDSAVYYCARETIDLAWFAYWGQGTLVTVSA
VL: DVLMTQTPPSLPVTLGDQASISCRSSQSIVYSNGKTYLEWYLQKPGQSPKLLMYKVSNRFSGVPDRFSGSGSGTDFTLKISSVEAEDLGIYYCFQGSHVPLTFGAGTKLELK
notes: Mouse (BALB/c) hybridoma monoclonal; also called antibody produced by 25F7F1 mouse hybridomas
Consider B1, for which the binding result is “binds”.
